Assay results taken from paper PMC9978035, “Human uridine 5′-monophosphate synthase stores metabolic potential in inactive biomolecular condensates” (The Journal of Biological Chemistry, 2023).
Numbering of substitutions follows the chain as printed. Numbers in names are those of the source.

What was measured:
[1] = target: the molecule itself; assay: SEC; 20 mM Tris pH 7.5, 100 mM NaCl; SEPAX SRT-10-SEC-300 or Superdex 200 columns; MW standards run under the same conditions; also run with 500 μM orotate
[2] = target: the molecule itself; assay: cross-linking; SEC fractions in 50.0 mM Na3PO4 pH 8.0, 100.0 mM NaCl, 0.004% glutaraldehyde, quenched at time points up to 2 h, SDS-PAGE
[3] = target: the molecule itself; assay: AUC; sedimentation at 38,000 rpm, absorbance at 280 nm, 1 mg/ml (WT) or 1.5 mg/ml (mutants) and 1:5 dilutions, SEDFIT continuous sedimentation profiles

B1: Human uridine 5′-monophosphate synthase (HsUMPS), wildtype (enzyme, UniProt P11172 1-480, looked up)
chain: MAVARAALGPLVTGLYDVQAFKFGDFVLKSGLSSPIYIDLRGIVSRPRLLSQVADILFQTAQNAGISFDTVCGVPYTALPLATVICSTNQIPMLIRRKETKDYGTKRLVEGTINPGETCLIIEDVVTSGSSVLETVEVLQKEGLKVTDAIVLLDREQGGKDKLQAHGIRLHSVCTLSKMLEILEQQKKVDAETVGRVKRFIQENVFVAANHNGSPLSIKEAPKELSFGARAELPRIHPVASKLLRLMQKKETNLCLSADVSLARELLQLADALGPSICMLKTHVDILNDFTLDVMKELITLAKCHEFLIFEDRKFADIGNTVKKQYEGGIFKIASWADLVNAHVVPGSGVVKGLQEVGLPLHRGCLLIAEMSSTGSLATGDYTRAAVRMAEEHSEFVVGFISGSRVSMKPEFLHLTPGVQLEAGGDNLGQQYNSPQEVIGKRGSDIIIVGRGIISAADRLEAAEMYRKAAWEAYLSRLGV
notes: Human UMP synthase (UMPS), bifunctional enzyme with OPRT and OMPDC domains; codon-optimized human UMPS in pDB-His-MBP between NdeI and XhoI; expected protomer MW 52 kDa; both domains are present and the expected protomer mass of 52 kDa fits the whole protein (surmise); also called human UMPS; UMP synthase; source: E. coli BL21(DE3), purified (amylose resin, on-column TEV cleavage, Ni-NTA, SEC or …)
[1]
  stoichiometry N: 2

B2: HsUMPS D312N (OMPDC active site mutant) (enzyme, human, UniProt P11172 1-480, looked up)
chain: B1 chain with D312N
notes: Human UMP synthase (UMPS) with the OMPDC active site mutation D312N; same construct as the wildtype; as m1 with the mutation; also called OMPDC mutant; source: E. coli BL21(DE3), purified in a similar fashion as WT; not shown: His6, N-terminal, cleaved; MBP, N-terminal, cleaved
[1]
  binding result: binds

B3: HsUMPS E123Q (OPRT active site mutant) (enzyme, human, UniProt P11172 1-480, looked up)
chain: B1 chain with E123Q
notes: Human UMP synthase (UMPS) with the OPRT active site mutation E123Q; same construct as the wildtype; as m1 with the mutation; also called E123Q OPRT mutant; source: E. coli BL21(DE3), purified in a similar fashion as WT; not shown: His6, N-terminal, cleaved; MBP, N-terminal, cleaved
[2]
  stoichiometry N: 2

B4: HsUMPS S87T/Q90E (OPRT dimerization-deficient mutant) (enzyme, human, UniProt P11172 1-480, looked up)
chain: B1 chain with S87T, Q90E
notes: Human UMP synthase (UMPS) with the double mutation S87T/Q90E at the native OPRT dimer interface; same construct as the wildtype; as m1 with the mutations; also called oligomerization-deficient mutant; source: E. coli BL21(DE3), purified in a similar fashion as WT; not shown: His6, N-terminal, cleaved; MBP, N-terminal, cleaved
[3]
  stoichiometry N: 2
